Experimental data as given in US20110212106A1 (INSTITUTE FOR RESEARCH IN BIOSCIENCE, published 2011).

Target: T1, peptide … (HIV-1)
T1 construct: also called wt peptide
Assay: Pepscan ELISA

B1: HGN194 (antibody, V domains shown)
VH: EVQLVQSGAEVKKPGESLKISCYGSGYNFNDYWIGWVRQMPGKGLEWMGMIYPDDSDTKYSAAFEGQVTLSADKSISTAYLQWTSLRASDTATYYCARLDGDYADFDSWGQGTLVTVSS
VL: QSVLTQPPSVSAAPGQKVTISCSGTNSNLGDKFVSWYQQLPGTAPRLLIYDNDKRPSGIPDRFSGSKSGASATLAITGLQTGDEADYYCGTWDNSLSALFGGGTKLTVL
notes: also called HGN194.12
Does B1 bind?
Result: binds
